# Test results taken from US20180057604A1 (Genentech, published 2018).
# Target: His-tagged BACE1 protein (Example 15) (Homo sapiens (Human), UniProt P56817 22-457)
# Test: SPR (Biacore T200), Fab on captured His-BACE1;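 further: Single-cycle kinetics with serially diluted Fab flowed over BACE1 captured by anti-His antibody on a CM5 chip, rates fitted to a one-to-one Langmuir model, Kd derived as koff over kon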
# His-tagged BACE1 protein (Example 15), sequence (P56817 22-457 limits assumed): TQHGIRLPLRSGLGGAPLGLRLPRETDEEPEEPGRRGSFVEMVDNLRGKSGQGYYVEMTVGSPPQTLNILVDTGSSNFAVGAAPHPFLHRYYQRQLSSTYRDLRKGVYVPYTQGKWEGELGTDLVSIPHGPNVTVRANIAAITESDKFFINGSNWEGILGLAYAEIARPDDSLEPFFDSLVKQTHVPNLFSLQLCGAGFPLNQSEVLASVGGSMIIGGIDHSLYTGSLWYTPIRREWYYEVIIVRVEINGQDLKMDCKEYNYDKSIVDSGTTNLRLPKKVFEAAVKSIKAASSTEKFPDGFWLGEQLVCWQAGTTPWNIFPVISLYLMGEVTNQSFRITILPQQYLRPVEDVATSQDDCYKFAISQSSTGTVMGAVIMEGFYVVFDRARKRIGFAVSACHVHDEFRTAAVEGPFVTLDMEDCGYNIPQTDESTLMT
Binder,Kd [nM],koff [s⁻¹],kon [M⁻¹ s⁻¹]
"6266wt (Fab, V domains shown, also called ADI6266) VH: QVQLVQSGAEVKKPGSSVKVSCKASGGTLSGYGVSWVRQAPGQGLEWMGNIIPGFGTANYAQKFQGRVTITADESTSTAYMELSSLRSEDTAVYYCARSGGTKYGMLDVWGQGTMVTVSS VL: EIVMTQSPATLSVSPGERATLSCRASQSVSSNLAWYQQKPGQAPRLLIYGASTRATGIPARFSGSGSGTEFTLTISSLQSEDFAVYYCQQLILWPPRTFGGGTKVEIK",1.09,0.000403,371000
"6266.6 Fab (Fab, V domains shown) VH: QVQLVQSGAEVKKPGSSVKVSCKASGGTLSHYGVSWVRQAPGQGLEWMGNIIPGIGTANYAQKFQGRVTITADESTSTAYMELSSLRSEDTAVYYCARSGGTQYGMLDVWGQGTMVTVSS VL: EIVMTQSPATLSVSPGERATLSCRASQSVSSNLAWYQQKPGQAPRLLIYGASTRAYGIPARFSGSGSGTEFTLTISSLQSEDAAVYYCQQLILWPPRTFGGGTKVEIK",0.78,0.000278,356000
"6266.9 Fab (Fab, V domains shown) VH: QVQLVQSGAEVKKPGSSVKVSCKASGGTLKGYGVSWVRQAPGQGLEWMGNIIPGFGTANYAQKFQGRVTITADESTSTAYMELSSLRSEDTAVYYCARGGGTKYGMLDVWGQGTMVTVSS VL: EIVMTQSPATLSVSPGERATLSCRASQSVSSNLAWYQQKPGQAPRLLIYGASKRATGIPARFSGSGSGTEFTLTISSLQSEDFAVYYCQQLILWPPRTFGGGTKVEIK",0.68,0.000305,445000
"6266.2 Fab (Fab, V domains shown) VH: QVQLVQSGAEVKKPGSSVKVSCKASGGTLSHYGVSWVRQAPGQGLEWMGNIIPGIGTANYAQKFQGRVTITADESTSTAYMELSSLRSEDTAVYYCARSGGTKYGMLDVWGQGTMVTVSS VL: EIVMTQSPATLSVSPGERATLSCRASQSVSSNLAWYQQKPGQAPRLLIYGASKRATGIPARFSGSGSGTEFTLTISSLQSEDAAVYYCQQLILWPPRTFGGGTKVEIK",0.58,0.000142,245000
"6266.7 Fab (Fab, V domains shown) VH: QVQLVQSGAEVKKPGSSVKVSCKASGGTLSHYGVSWVRQAPGQGLEWMGNIIPGIGTANYAQKFQGRVTITADESTSTAYMELSSLRSEDTAVYYCARSGGTKYGELDVWGQGTMVTVSS VL: EIVMTQSPATLSVSPGERATLSCRASQSVSSNLAWYQQKPGQAPRLLIYGASTRAYGIPARFSGSGSGTEFTLTISSLQSEDAAVYYCQQLILWPPRTFGGGTKVEIK",0.62,0.000333,542000
"6266.15 Fab (Fab, V domains shown) VH: QVQLVQSGAEVKKPGSSVKVSCKASGGTLSGYGVSWVRQAPGQGLEWMGNIIPGFGTANYAQKFQGRVTITADESTSTAYMELSSLRSEDTAVYYCARSGGTKYGELDVWGQGTMVTVSS VL: EIVMTQSPATLSVSPGERATLSCRASQSVSSNLAWYQQKPGQAPRLLIYGASTRATGIPARFSGSGSGTEFTLTISSLQSEDFAVYYCQQLILWPPRTFGGGTKVEIK",0.64,0.000495,774000
"6266.10 Fab (Fab, V domains shown) VH: QVQLVQSGAEVKKPGSSVKVSCKASGGTLSGYGVSWVRQAPGQGLEWMGNIIPGFGTANYAQKFQGRVTITADESTSTAYMELSSLRSEDTAVYYCARSGGTKYGMLDVWGQGTMVTVSS VL: EIVMTQSPATLSVSPGERATLSCRASQSVSSNLAWYQQKPGQAPRLLIYGASKRATGIPARFSGSGSGTEFTLTISSLQSEDFAVYYCQQLILWPPRTFGGGTKVEIK",0.69,0.000506,756000

# More lines, now with the values ahead:
Kd [nM],koff [s⁻¹],kon [M⁻¹ s⁻¹],Binder
0.57,0.000474,839000,"6266.14 Fab (Fab, V domains shown) VH: QVQLVQSGAEVKKPGSSVKVSCKASGGTLSGYGVSWVRQAPGQGLEWMGNIIPGFGVANYAQKFQGRVTITADESTSTAYMELSSLRSEDTAVYYCARSGGTKWGMLDVWGQGTMVTVSS VL: EIVMTQSPATLSVSPGERATLSCRASQSVSSNLAWYQQKPGQAPRLLIYGASTRATGIPARFSGSGSGTEFTLTISSLQSEDFAVYYCQQLILWPPRTFGGGTKVEIK"
0.56,0.000275,488000,"6266.8 Fab (Fab, V domains shown, not tied singly) VH: QVQLVQSGAEVKKPGSSVKVSCKASGGTLKGYGVSWVRQAPGQGLEWMGNIIPGFGTANYAQKFQGRVTITADESTSTAYMELSSLRSEDTAVYYCARGGGTKYGMLDVWGQGTMVTVSS VL: EIVMTQSPATLSVSPGERATLSCRASQSVSSNLAWYQQKPGQAPRLLIYGASTRAYGIPARFSGSGSGTEFTLTISSLQSEDFAVYYCQQLILWPPRTFGGGTKVEIK"
0.24,0.000161,654000,"6266.1 Fab (Fab, V domains shown, not tied singly) VH: QVQLVQSGAEVKKPGSSVKVSCKASGGTLSHYGVSWVRQAPGQGLEWMGNIIPGIGTANYAQKFQGRVTITADESTSTAYMELSSLRSEDTAVYYCARSGGTKYGMLDVWGQGTMVTVSS VL: EIVMTQSPATLSVSPGERATLSCRASQSVSSNLAWYQQKPGQAPRLLIYGASTRATGIPARFSGSGSGTEFTLTISSLQSEDFAVYYCQQLILWPPRTFGGGTKVEIK"
0.56,0.000411,734000,"6266.13 Fab (Fab, V domains shown) VH: QVQLVQSGAEVKKPGSSVKVSCKASGGTLSGYGMSWVRQAPGQGLEWMGNIIPGFGTANYAQKFQGRVTITADESTSTAYMELSSLRSEDTAVYYCARSGGTKYGMLDVWGQGTMVTVSS VL: EIVMTQSPATLSVSPGERATLSCRASQSVSSNLAWYQQKPGQAPRLLIYGASTRATGIPARFSGSGSGTEFTLTISSLQSEDFAVYYCQQLILWPPRTFGGGTKVEIK"
0.53,0.000228,428000,"6266.5 Fab (Fab, V domains shown) VH: QVQLVQSGAEVKKPGSSVKVSCKASGGTLSHYGVSWVRQAPGQGLEWMGNIIPGIGTANYAQKFQGRVTITADESTSTAYMELSSLRSEDTAVYYCARSGGTQYGMLDVWGQGTMVTVSS VL: EIVMTQSPATLSVSPGERATLSCRASQSVSSNLAWYQQKPGQAPRLLIYGASKRATGIPARFSGSGSGTEFTLTISSLQSEDAAVYYCQQLILWPPRTFGGGTKVEIK"
0.46,0.00041,891000,"6266.11 Fab (Fab, V domains shown) VH: QVQLVQSGAEVKKPGSSVKVSCKASGGTLSGYGVSWVRQAPGQGLEWMGNIIPGFGTANYAQKFQGRVTITADESTSTAYMELSSLRSEDTAVYYCARSGGTKYGMLDVWGQGTMVTVSS VL: EIVMTQSPATLSVSPGERATLSCRASQSVSSNLAWYQQKPGQAPRLLIYGASTRAYGIPARFSGSGSGTEFTLTISSLQSEDFAVYYCQQLILWPPRTFGGGTKVEIK"
0.26,0.00017,638000,"6266.4 Fab (Fab, V domains shown) VH: QVQLVQSGAEVKKPGSSVKVSCKASGGTLSHYGVSWVRQAPGQGLEWMGNIIPGIGTANYAQKFQGRVTITADESTSTAYMELSSLRSEDTAVYYCARSGGTKYGMLDVWGQGTMVTVSS VL: EIVMTQSPATLSVSPGERATLSCRASQSVSSNLAWYQQKPGQAPRLLIYGASKRATGIPARFSGSGSGTEFTLTISSLQSEDFAVYYCQQLILWPPRTFGGGTKVEIK"
0.52,0.000447,854000,"6266.12 Fab (Fab, V domains shown) VH: QVQLVQSGAEVKKPGSSVKVSCKASGGTLNGYGVSWVRQAPGQGLEWMGNIIPGFGTANYAQKFQGRVTITADESTSTAYMELSSLRSEDTAVYYCARSGGTKYGMLDVWGQGTMVTVSS VL: EIVMTQSPATLSVSPGERATLSCRASQSVSSNLAWYQQKPGQAPRLLIYGASTRATGIPARFSGSGSGTEFTLTISSLQSEDFAVYYCQQLILWPPRTFGGGTKVEIK"
0.29,0.000142,480000,"6266.3 Fab (Fab, V domains shown) VH: QVQLVQSGAEVKKPGSSVKVSCKASGGTLSHYGVSWVRQAPGQGLEWMGNIIPGIGTANYAQKFQGRVTITADESTSTAYMELSSLRSEDTAVYYCARSGGTKYGMLDVWGQGTMVTVSS VL: EIVMTQSPATLSVSPGERATLSCRASQSVSSNLAWYQQKPGQAPRLLIYGASTRAYGIPARFSGSGSGTEFTLTISSLQSEDFAVYYCQQLILWPPRTFGGGTKVEIK"

# Target: BACE1 in primary mouse cortical neurons (mouse, UniProt P56818 46-501)
# Sequence (P56818 46-501): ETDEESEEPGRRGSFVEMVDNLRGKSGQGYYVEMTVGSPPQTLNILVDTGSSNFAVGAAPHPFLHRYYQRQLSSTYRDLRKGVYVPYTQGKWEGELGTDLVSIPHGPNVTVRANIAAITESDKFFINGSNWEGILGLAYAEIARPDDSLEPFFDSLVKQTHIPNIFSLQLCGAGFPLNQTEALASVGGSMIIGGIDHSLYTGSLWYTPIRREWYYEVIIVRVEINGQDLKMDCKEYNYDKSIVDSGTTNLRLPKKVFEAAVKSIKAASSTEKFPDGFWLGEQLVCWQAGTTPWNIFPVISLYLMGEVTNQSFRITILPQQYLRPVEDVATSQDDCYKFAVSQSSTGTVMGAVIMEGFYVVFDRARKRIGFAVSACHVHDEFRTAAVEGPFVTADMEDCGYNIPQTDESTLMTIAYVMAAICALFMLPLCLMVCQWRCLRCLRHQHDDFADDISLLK
# Test: cell-based or functional assay
"IC50, Abeta x-40 in mouse cortical neurons [nM]",maximal % inhibition of Abeta x-40 [%],Binder
18.3,65,"5543 (antibody, V domains shown) VH: QLQLQESGPGLVKPSETLSLTCTVSGGSISSSSYYWGWIRQPPGKGLEWIGSIYYSGSTYYNPSLKSRVTISVDTSKNQFSLKLSSVTAADTAVYYCARVGHGISYFDLWGRGTLVTVSS VL: EIVLTQSPATLSLSPGERATLSCRASQSVSSYLAWYQQKPGQAPRLLIYDASNRATGIPARFSGSGSGTDFTLTISSLEPEDFAVYYCQQAYVWPPRTFGGGTKVEIK"
1.59,67,"5902 (antibody, V domains shown) VH: QLQLQESGPGLVKPSETLSLTCTVSGGSISSSSYYWGWIRQPPGKGLEWIGSIYRSGSTWYNPSLKSRVTISVDTSKNQFSLKLSSVTAADTAVYYCARVGHGISYFDLWGRGTLVTVSS VL: EIVLTQSPATLSLSPGERATLSCRASQSVSSYLAWYQQKPGQAPRLLIYDASKRATGIPARFSGSGSGTDFTLTISSLEPEDFAVYYCQQVYTWPPRTFGGGTKVEIK"
9.71,60,"5643 (antibody, V domains shown) VH: QLQLQESGPGLVKPSETLSLTCTVSGGSISSSSYYWGWIRQPPGKGLEWIGSIYYSGSTYYNPSLKSRVTISVDTSKNQFSLKLSSVTAADTAVYYCARVGHGISYFDLWGRGTLVTVSS VL: EIVLTQSPATLSLSPGERATLSCRASQSVSSYLAWYQQKPGQAPRLLIYDASNRATGIPARFSGSGSGTDFTLTISSLEPEDFAVYYCQQSLTWPPRTFGGGTKVEIK"

# Target: BACE1 (HTRF long substrate and FRET short substrate assays of Example 9D)
# Test: cell-based or functional assay
"EC50, FRET short substrate [nM]","EC50, HTRF long substrate [nM]",Binder
9.11,30,"5543 (antibody, V domains shown) VH: QLQLQESGPGLVKPSETLSLTCTVSGGSISSSSYYWGWIRQPPGKGLEWIGSIYYSGSTYYNPSLKSRVTISVDTSKNQFSLKLSSVTAADTAVYYCARVGHGISYFDLWGRGTLVTVSS VL: EIVLTQSPATLSLSPGERATLSCRASQSVSSYLAWYQQKPGQAPRLLIYDASNRATGIPARFSGSGSGTDFTLTISSLEPEDFAVYYCQQAYVWPPRTFGGGTKVEIK"
1.41,17.7,"5643 (antibody, V domains shown) VH: QLQLQESGPGLVKPSETLSLTCTVSGGSISSSSYYWGWIRQPPGKGLEWIGSIYYSGSTYYNPSLKSRVTISVDTSKNQFSLKLSSVTAADTAVYYCARVGHGISYFDLWGRGTLVTVSS VL: EIVLTQSPATLSLSPGERATLSCRASQSVSSYLAWYQQKPGQAPRLLIYDASNRATGIPARFSGSGSGTDFTLTISSLEPEDFAVYYCQQSLTWPPRTFGGGTKVEIK"
